Measured values reported in PMC3264624.

Experiments:
Experiment in all cases: FRET or BRET; FLIM-FRET, Cerulean (donor) and mOrange (acceptor) fusions co-expressed in N. benthamiana leaves, two days post infiltration; Cerulean fluorescence lifetime, multiphoton excitation at 810 nm
[1] = target: NFR1:Cerulean (Lotus japonicus) (UniProt Q70KR8)
[2] = target: LjSYMREM1:mOrange (full length) (Lotus japonicus)
[3] = target: LjSYMREM1C:mOrange (Lotus japonicus)

UniProt Q70KR8, sequence (Q70KR8 entry or part of it): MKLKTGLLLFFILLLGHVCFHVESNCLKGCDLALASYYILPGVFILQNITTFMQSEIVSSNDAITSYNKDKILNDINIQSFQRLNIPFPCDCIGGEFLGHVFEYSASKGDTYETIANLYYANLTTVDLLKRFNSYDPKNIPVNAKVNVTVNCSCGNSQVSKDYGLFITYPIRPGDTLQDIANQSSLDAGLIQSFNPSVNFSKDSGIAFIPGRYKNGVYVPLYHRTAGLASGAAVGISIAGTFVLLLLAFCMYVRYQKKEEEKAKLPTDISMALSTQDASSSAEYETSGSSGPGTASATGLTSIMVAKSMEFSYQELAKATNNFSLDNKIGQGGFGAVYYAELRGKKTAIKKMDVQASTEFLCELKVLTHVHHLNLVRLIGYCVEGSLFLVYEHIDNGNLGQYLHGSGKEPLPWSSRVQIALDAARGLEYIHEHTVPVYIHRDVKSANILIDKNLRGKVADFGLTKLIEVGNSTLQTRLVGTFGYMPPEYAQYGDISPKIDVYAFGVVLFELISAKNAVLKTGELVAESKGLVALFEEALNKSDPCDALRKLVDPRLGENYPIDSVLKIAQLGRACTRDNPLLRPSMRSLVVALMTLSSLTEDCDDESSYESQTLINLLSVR

| Substance | Cerulean fluorescence lifetime [1] | FRET efficiency [1] | Cerulean fluorescence lifetime [2] | FRET efficiency [2] | Cerulean fluorescence lifetime [3] | FRET efficiency [3] |
| --- | --- | --- | --- | --- | --- | --- |
| LjSYMREM1N:mOrange (domain or fragment) | 2.09 ns | 4.1% | – | – | – | – |
| NFR1:Cerulean (from UniProt Q70KR8 1-621) (receptor) | – | – | 1.99 ns | 8.8% | 1.97 ns | 9.6% |
